From article PMC10273338, “HspB8 interacts with BAG3 in a “native‐like” conformation forming a complex that displays chaperone‐like activity” (Protein Science : A Publication of the Protein Society, 2023)

B1: Josephin domain of ataxin-3 (domain or fragment, UniProt P54252 1-180, looked up)
chain: MESIFHEKQEGSLCAQHCLNNLLQGEYFSPVELSSIAHQLDEEERMRMAEGGVTSEDYRTFLQQPSGNMDDSGFFSIQVISNALKVWGLELILFNSPEYQRLRIDPINERSFICNYKEHWFTVRKLGKQWFNLNSLLTGPELISDTYLALFLAQLQQEGYSIFVVKGDLPDCEADQLLQM
notes: cloned in pET21-a; likely residues 1-182 of human ataxin-3 (surmised). pET21-a may add a C-terminal His6 tag; also called JD; source: E. coli BL21 Tuner (DE3) pLacI, purified as previously described (Bonanomi et al., 2015)
B2: HspB8 (natural protein, UniProt Q9UJY1 1-196, looked up)
chain: MADGQMPFSCHYPSRLRRDPFRDSPLSSRLLDDGFGMDPFPDDLTASWPDWALPRLSSAWPGTLRSGMVPRGPTATARFGVPAEGRTPPPFPGEPWKVCVNVHSFKPEELMVKTKDGYVEVSGKHEEKQQEGGIVSKNFTKKIQLPAEVDPVTVFASLSPEGLLIIEAPQVPPYSTFGESSFNNELPQDSQEVTCT
notes: HspB8, small heat shock protein; gene in pGEX-6P-1, provided by Serena Carra; source: E. coli BL21-CodonPlus(DE3)-RIL, purified (Glutathione Sepharose, PreScission cleavage on the resin, Superose 12 SEC); not shown: GST, N-terminal, cleaved
B3: HspB8-BAG3 complex (complex)
chain 1: MADGQMPFSCHYPSRLRRDPFRDSPLSSRLLDDGFGMDPFPDDLTASWPDWALPRLSSAWPGTLRSGMVPRGPTATARFGVPAEGRTPPPFPGEPWKVCVNVHSFKPEELMVKTKDGYVEVSGKHEEKQQEGGIVSKNFTKKIQLPAEVDPVTVFASLSPEGLLIIEAPQVPPYSTFGESSFNNELPQDSQEVTCT
chain 2: not shown

Key:
[1] = biological target: B2; experiment: SPR; BIACORE X100; JD amine-coupled to a CM5 chip (3000 RU); single cycle kinetics at 25°C, 10 uL/min, 10 mM HEPES pH 7.4, 150 mM NaCl, 3 mM EDTA, 0.005% P20; Langmuir 1:1 fit, complex assumed to bind JD 1:1; details: both partners purified
[2] = biological target: B3; experiment: as above; details: both partners purified
[3] = biological target: T1, BAG3 (Bcl-2 associated athanogene protein 3) (human, UniProt O95817 1-575); experiment: as above; details: both partners purified
T1 construct: BAG3, human; no removal of the tag is described; source: E. coli M15 (pREP4), purified (HisPur Cobalt resin, Superose 12 SEC)

[4] = biological target: T1, BAG3 (Bcl-2 associated athanogene …); experiment: SPR; BIACORE X; HspB8 amine-coupled to a CM5 chip (7400 RU); running buffer 10 mM HEPES pH 7.4, 150 mM NaCl, 3 mM EDTA, 0.005% P20; 10 uL/min; Langmuir 1:1 fit; details: both partners purified
[5] = biological target: T1, BAG3 (Bcl-2 associated athanogene …); experiment: SPR; BIACORE X; BAG3 amine-coupled to a CM5 chip (3400 RU); running buffer 10 mM HEPES pH 7.4, 150 mM NaCl, 3 mM EDTA, 0.005% P20; 10 uL/min; Langmuir 1:1 fit; details: both partners purified
[6] = biological target: B1; experiment: cell-based or functional assay

Chain of HspB8-BAG3 complex (O95817 whole entry, one chain of several): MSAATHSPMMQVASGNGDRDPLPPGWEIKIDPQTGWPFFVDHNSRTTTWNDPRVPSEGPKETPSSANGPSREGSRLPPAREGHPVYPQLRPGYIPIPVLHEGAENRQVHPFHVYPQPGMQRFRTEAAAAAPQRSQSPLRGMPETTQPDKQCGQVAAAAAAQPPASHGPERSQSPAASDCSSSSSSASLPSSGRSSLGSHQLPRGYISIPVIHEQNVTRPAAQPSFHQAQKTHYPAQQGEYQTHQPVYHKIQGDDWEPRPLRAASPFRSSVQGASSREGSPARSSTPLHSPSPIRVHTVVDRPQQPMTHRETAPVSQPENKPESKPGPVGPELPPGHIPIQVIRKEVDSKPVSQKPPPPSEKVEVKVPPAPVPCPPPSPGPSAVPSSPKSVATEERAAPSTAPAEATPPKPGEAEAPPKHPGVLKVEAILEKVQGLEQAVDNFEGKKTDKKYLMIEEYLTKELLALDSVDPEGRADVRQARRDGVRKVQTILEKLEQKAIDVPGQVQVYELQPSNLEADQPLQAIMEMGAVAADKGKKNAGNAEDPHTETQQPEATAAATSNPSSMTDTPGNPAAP
T1 sequence (O95817 whole entry): as the sequence (O95817 whole entry, one chain of several) above

B1
Ka [1]: 120000 M⁻¹
Kd [1]: 8100 nM
koff [1]: 0.0006 s⁻¹
kon [1]: 74 M⁻¹ s⁻¹
Ka [2]: 1.4e+07 M⁻¹
Kd [2]: 73 nM
koff [2]: 0.00024 s⁻¹
kon [2]: 3300 M⁻¹ s⁻¹
Ka [3]: 190000 M⁻¹
Kd [3]: 5400 nM
koff [3]: 0.0014 s⁻¹
kon [3]: 260 M⁻¹ s⁻¹

B2
Ka [4]: 4.2e+08 M⁻¹
Kd [4]: 2.4 nM
koff [4]: 0.00022 s⁻¹
kon [4]: 93000 M⁻¹ s⁻¹
Ka [5]: 2.2e+08 M⁻¹
Kd [5]: 4.5 nM
koff [5]: 0.00056 s⁻¹
kon [5]: 130000 M⁻¹ s⁻¹
inhibition of JD aggregation (ThT fluorescence, 10 uM JD at 37°C with HspB8 at different molar ratios; 20% at JD:HspB8 1:0.093, maximum at 4:1) [6]: 35%

B3
inhibition of JD aggregation (ThT fluorescence, 10 uM JD at 37°C with the HspB8-BAG3 complex at different ratios; maximum at JD:complex 1:0.5) [6]: 40%
